Laboratory results taken from a protein production outcome set (Wang et al. 2014).

Experiment: label from the status in PepcDB records

Sequence	protein production
MNALKNLSLILLLSLAFTGCHNKSSKINDFNLLLYAPEYASGFDIKGAGGKESVLITVRNPWQGADSVTTWLFIVRNGEEVPEGFAGQVLKGDAKRIVAMSSTHIAMLDAIGEVRCITGVSGIDYISNPDIQARRDSIGDVGYEGNINYELLLSLDPDLVLLYGVNGASAMESKLEELDIPFMYVGDYLEESPLGKAEWMVVLSEVTGKREKGEKAFAAIPVRYNALKKKVADSTLGTPSVMLNVPYGDSWFMPSTQSYVARLITDAGGRYIYQKNTGNASIPIDLEEAYLLASDADMWLNVGMANSLDDLKASCPKFTDTRCFKNGEVYNNNARTNTAGGNDYYESAVVNPDIVLRDLVKIFHPELVQEECVYYKQLK	failed
MTSTTTAPLVGLVMGSDSDWPVMEAAADALAEFGIPFEADVVSAHRMPTEMIRYGQTAHERGLRVIIAGAGGAAHLPGMLASVTPLPVIGVPVPLKTLDGMDSLLSIVQMPAGVPVATVSIAGARNAGLLAVRILASGTDDLASKLRADLLTFAQELNDVATKKGENLRHKVEEVFSPANASARSSR	failed
MDDIFTQCREGNAVAVRLWLDNTENDLNQGDDHGFSPLHWACREGRSAVVEMLIMRGARINVMNRGDDTPLHLAASHGHRDIVQKLLQYKADINAVNEHGNVPLHYACFWGQDQVAEDLVANGALVSICNKYGEMPVDKAKAPLRELLRERAEKMGQNLNRIPYKDTFWKGTTRTRPRNGTLNKHSGIDFKQLNFLTKLNENHSGELWKGRWQGNDIVVKVLKVRDWSTRKSRDFNEECPRLRIFSHPNVLPVLGACQSPPAPHPTLITHWMPYGSLYNVLHEGTNFVVDQSQAVKFALDMARGMAFLHTLEPLIPRHALNSRSVMIDEDMTARISMADVKFSFQCPGRMYAPAWVAPEALQKKPEDTNRRSADMWSFAVLLWELVTREVPFADLSNMEIGMKVALEGLRPTIPPGISPHVCKLMKICMNEDPAKRPKFDMIVPILEKMQDK	failed
MNNKTNWVIIGRFGRPHGIKGFVTVHSFTDPADNILRYNDWHVFLNKQWQPLKLLTIEVRSKAIIAQIEGYPKRELVSALTNLDIGVQESQLAALAPGEYYWYQLIGMSVINSKGDLFGKVVEIMPTGSNDVLVVEGEKRHLIPYLPGQFVINVDESQQVITVDWDMNF	failed
MIMMKRYKKILLTGVLSALSCSFVHAQELYKNENAPVHERVMDLISRLTVEEKISLLRATSPGIPRLGIDKYYHGNEALHGVVRPGRFTVFPQAIGLAATWNPELQKRVATVISDEARARWNELDQGREQKEQFSDVLTFWSPTVNMARDPRWGRTPETYGEDPFLSGIMGTAFVNGLQGDDPHYLKIVSTPKHFAANNEEHNRFVCNPQISEKQLREYYFPAFEMCVKEGKAASIMSAYNALNDVPCTLNPWLLQKVLRQDWGFQGYVVSDCGGPALLVNAHKYVKTKEAAATLSIKAGLDLECGDDVYDGPLLNAYKQYMVSDADIDSAAYHVLTARMKLGLFDSGERNPYTKISPSVIGSKEHQQIALDAARQCVVLLKNQKNRLPLNADKLKSIAVVGINAGKCEFGDYSGAPVVEPVSILQGIRNRVGDRVKVVYAPWKSAADGLELIQGENFPEGLQAEYFDNTRLEGTPRVRKESWINFEPANQAPDPFLPKSPLSVRWTGKLKPTVSGRYTFSFTSDDGCRLSINNQMLIDAWQAHAVSTDSASIYLEAGKEYQLKAEYYDNRDYAIAKLQWKVPQIGKATRLDLYGEAGKAVRECETVVAVMGINKSIEREGQDRYDIQLPADQREFLQEIYKVNPNIIVVLVAGSSLAINWMDEHIPAIVNAWYPGEQGGTAVAEVLFGDYNPAGRLPLTYYKSLDELPPFDDYDITKGRTYKYFKGDVLYPFGYGLSYSSFTYSDLQVKDGGGEVTVSFRLKNTGKRNGDEVAQVYVRIPETGGIVPLKELKGFRRVPLKSGESRRVEIKLDKEQLRYWDVEKGQFVVPKGAFDVMVGASSKDIRLQTVIDL	failed
MLLRLPLLDLTPLPAPFYELAKDVEQSLITDPEKAREVAAKLHAATDTAQGLHRAYAELLLARTLLSTRQWQAALESFEKARKSLLALERAALVAHAVLGRVYILLGTGQYAEASAEAAELEAQLANGPVQAMEIRALALNAIAYAEYAQGRPVQAINHLKEALKLREQLSPIIIAACLCNLGISNIEQGNYREAIYWLMEAYRAHPDSNEDRQLELATLTNLAYAHYLAGDLSLATEITQKAYAAAGEWQSYKVRAYSALNLGTYNTELQQTGRARSYLQEALVLSQTQPELTADAVLRASILDSLGTLEHQDGNSESALELYTRAREIAQRDELPAVEALTQLNIGRMLGQLGRPEARAELERALELAVAACLFKEQFEAHTALAELTAAAADWRSAYRHQQELTRLKLHLLEGEHERQRKELRAELDLEQMRREGELSRERLKIEVAARERAEAETLERTQQLAQAQREVVLCLALAAEYRDSITGEHIKRVGTFAAHIALALGWSQADAELLMLASRLHDVGKIGIPDSILLKPGKLTEVEYVQMQAHTLIGSQILGQGNSALLKLAQTIALSHHERWNGEGYPYGLHGEAIPLAGRIVAVADVYDALIQRRPYKAAWTPEQAAAELSAQAGRHFDPALVEVALRILNDVHYSVDELKELGPPTVGPAAASLERELALRTQELQEARKNAGELLQLALSDSLTGLHNRRALELDLEQRIYPGAVDFYMTSLDLDSLKEINDSQGHQYGDQLLRQFALCLRQSCAAGKTYRIGGDEFAVLWNLDVTEQDIVQVLRRLPQNLRVTGQPGISFSYGSACYNRDAATAGDLLRVSDARMYRMKVGRRGEETDSIWFKEDH	failed
MKNICFINGSPRSKKANSTLYLNLIDKSLDSKNYTKYYIDTTSSIKGDLESTFKTLLDADYIILAFPLYVYSMPSLLVRFLEDYYIYLKNKDTISQKTNLYAVVNCGFPDAKMNVEALKIVFNCCKKLNINFRFGIGIGAGEFVNFSKNNPLLNKLSSCVYKSINKITYDIENQVSIEINNIFVNPKIPRRLFFIFGHIFWKKWAKRNGIKISALFDKPLEHHHHHH	failed
MAPEMNNKLSYGEKKRAYVTFLAGTGDYVKGVVGLAKGLRKTKSKYPLVVAVLPDVPADHRRQLLDQGCVIKEIQPVYPPDNQTQFAMAYYVLNYSKLRIWKFVEYSKLIYLDGDIQVFENIDHLFDLPDGNFYAVKDCFCEKTWSHTPQYKIGYCQQCPDKVTWPESELGPKPPLYFNAGMFVYEPSLPTYYNLLETLKVVPPTPFAEQDFLNMYFKDIYKPIPPVYNLVLAMLWRHPENIELNEAKVVHYCAAGAKPWRFTGQEGNMEREDIKMLVEKWWDIYNDESLDYKNFNVHCGQKEDVHRKPKTLPQFFTDLSEADVLQCAKAPSAA	failed
MGTARTLTAAGGEPAFRGNDRLLLGIILGVLTFWLFAQTTLNIAPDMRRDLGTGESLMNIAVALTALFSGIFIVVMGGLADRVGRVRMVRLGFLASIAGSLLVGLAPAGGLAVAFLLAGRALQGLSGACIMPASLALVKAYWDGAERQRAISLWSIGSWGGSGVCSLFGGLVTQHLGWRWIFFASVLVAIAGLLLLRGTPESRAEGGAADYRFDLAGVLTFMVAMVALQVVVTQGNQLGWTSPASLGLVAATIVFGWLFLRIERRARSPFIDFGLFRSPTYTGATISNFLLNGVAGTLIVSLQLVQVGGGMSAQRAGVLTLGYAVAIIAFIRVGEKLLRRFGARRPMLWGCAITGASILLLAPSNVMLARYEVMAVIGYTLFGVGLAFYATPSTDAALSNLPASQAGAGSGLYKMASSLGAAFGVAISAAIFTALRAAPQSVSWLEGVITFQGRQDNLAVREAAIIALGFNELMVVVAIVSIVLTIPEGERRQGA	failed
MATTPRVDAGGGSSMFAAVPLLALPVIVYNLVALTLTGGFKATDATARMNEALFTIHMTSRTDWAVSLGDLLMAASLVVLFVELLKSTTSRKIAIINHSLSMVLFILCLVEFLLAPAFATSTFFLITLMVLLDVLAGFIVTIVAARRDVDFGDN	failed
KNVVHQLSVTLEDLYNGATRKLALQKNVICDKCEGRGGKKGAVECCPNCRGTGMQIRIHQIGPGMVQQIQSVCMECQGHGERISPKDRCKSCNGRKIVREKKILEVHIDKGMKDGQKITFHGEGDQEPGLEPGDIIIVLDQKDHAVFTRRGEDLFMCMDIQLVEALCGFQKPISTLDNRTIVITSHPGQIVKHGDIKCVLNEGMPIYRRPYEKGRLIIEFKVNFPENGFLSPDKLSLLEKLLPERKEVEETDEMDQVELVDFDPNQERRRHYNGEAYEDDEHHPRGGVQCQTS	failed
